Key:
[1] = target: T1, Recombinant hSIRPg-His (Sino Biologicals, reference 11828-H08H) (human, UniProt Q9P1W8 29-360); experiment: Blitz, hSIRPg-His on Ni-NTA biosensor
T1 construct: Bought recombinant protein; also called human SIRPg recombinant protein; not shown: histidine tail
Method: This method was performed with a Blitz (Forté Bio; USA; reference C22-2 No 61010-1). Recombinant hSIRPg-His (Sino Biologicals, Beijing, China; reference 11828-H08H) was immobilized at 10 μg/ml by histidine tail into a Ni-NTA biosensor (Forte Bio; USA; reference 18-0029) for 30 seconds. Then, an antibody was associated at 20 μg/mL for 120 seconds. The dissociation of antibody was made in kinetics buffer for 120 seconds. Analysis of data was made with the Blitz pro 1.2 software, which calculated association constant (ka) and dissociation constant (kd) and determined the affinity constant KD […].

[2] = target: T2, SIRPa variant 1 on human monocytes (homozygote v1/v1) (human, UniProt P78324 31-504); experiment: flow cytometry on human monocytes (SIRPa v1/v1)
T2 construct: the target on the cells is SIRPa v1; also called human monocytes v1/v1; SIRPa v1
T2 sequence (P78324 31-504 limits assumed, change not shown): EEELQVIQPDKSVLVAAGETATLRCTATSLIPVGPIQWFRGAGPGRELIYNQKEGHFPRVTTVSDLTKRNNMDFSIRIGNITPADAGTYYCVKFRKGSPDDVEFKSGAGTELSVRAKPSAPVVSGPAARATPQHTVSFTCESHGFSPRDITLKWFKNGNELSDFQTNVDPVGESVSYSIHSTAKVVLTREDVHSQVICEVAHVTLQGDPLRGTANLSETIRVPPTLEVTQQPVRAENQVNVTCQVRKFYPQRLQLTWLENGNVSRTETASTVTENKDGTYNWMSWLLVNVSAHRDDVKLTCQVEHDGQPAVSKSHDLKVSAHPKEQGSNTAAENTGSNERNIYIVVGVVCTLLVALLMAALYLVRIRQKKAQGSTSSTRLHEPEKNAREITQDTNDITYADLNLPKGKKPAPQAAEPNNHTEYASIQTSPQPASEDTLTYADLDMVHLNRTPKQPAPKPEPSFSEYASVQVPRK
Method: FIG. 7. Binding analysis of antibodies on human monocytes (homozygote for SIRPa variant 1 (v1/v1)). […] Revelation was performed with a PE labeled mouse anti-human Fc mAb on CantoII cytometer, values corresponding to percentage of stained monocytes.

T1 sequence (Q9P1W8 29-360): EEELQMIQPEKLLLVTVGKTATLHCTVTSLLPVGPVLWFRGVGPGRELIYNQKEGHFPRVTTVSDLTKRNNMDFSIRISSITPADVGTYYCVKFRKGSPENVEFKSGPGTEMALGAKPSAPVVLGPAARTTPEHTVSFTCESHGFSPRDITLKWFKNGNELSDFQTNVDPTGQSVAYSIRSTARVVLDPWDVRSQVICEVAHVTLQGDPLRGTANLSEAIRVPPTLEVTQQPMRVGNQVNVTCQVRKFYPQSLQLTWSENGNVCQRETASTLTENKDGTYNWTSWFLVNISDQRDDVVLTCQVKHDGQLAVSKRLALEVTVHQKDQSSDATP

B1: Kwar23 (antibody, V domains shown)
VH: EVQLQQSGAELVKPGASVKLSCTASGFNIKDYYIHWVQQRTEQGLEWIGRIDPEDGETKYAPKFQDKATITADTSSNTAYLHLSSLTSEDTAVYYCARWGAYWGQGTLVTVSS
VL: QIVLTQSPAIMSASPGEKVTLTCSASSSVSSSYLYWYQQKPGSSPKLWIYSTSNLASGVPARFSGSGSGTSYSLTISSMEAEDAASYFCHQWSSYPRTFGAGTKLELK
notes: Commercial antibody (Creative Biolabs, Cat. No TAB-453CT); also called TAB-453CT (Creative Biolabs)
binding result [1]: binds
binding result [2]: binds
